Measurements taken from patent US7648964B2, “Use of lacritin in promoting ocular cell survival” (University of Virginia Patent Foundation, priority 2004, dated 2010).
“Also recorded” adds a separate entry of the source.

Assays:
HSG cells = assay: Calcium mobilization imaging in HSG cells (Fluo-4); assay type: cell-based, human
Method: Cells were seeded at 1.4×10^4 HSG cells/mm^2 or 0.7×10^4 HSG cells/mm^2 on Matrigel-coated (100 μg/ml; BD Biosciences; San Diego Calif.) coverslips to respectively achieve 70-80% confluency after overnight or 48 h growth in 6-well plates containing phenol red-free Dulbecco's modified Eagle's medium with 10% fetal calf serum.
Other cells were incubated (0.7×10^4HSG cells/mm^2 overnight plating) with 100 ng/ml pertussis toxin (Calbiochem; San Diego Calif.) in phenol red-free Dulbecco's modified Eagle's medium with 10% fetal calf serum; or vehicle alone). Cells were washed with calcium-free/phenol red-free Hanks basic salt solution, 20 mM N-2-hydroxyethylpiperazine-N′-2-ethane sulfonic acid and then incubated for 1 h at room temperature with the same solution containing fluo-4 μM at 4 μM (FluoroPure grade [Molecular Probes; Eugene Oreg.] dissolved in DMSO plus 20% Pluronic F-127). Cells were washed three times for 60 min at room temperature with calcium-free/phenol red-free Hanks basic salt solution with 5 mM Ca^2+ or 5 mM EGTA. Temperature was stabilized for 5 min at 37° C. coverslips were placed on the stage of a TE-200 epifluorescent microscope (Bio-Rad Radiance2100 confocal/multiphoton system using Plan Fluor 60×NA 1.4 Oil IR objective lens [Bio-Rad, Hercules Calif.] as part of the W. M. Keck Center for Cellular Imaging, University of Virginia), subjected to a 488 nm argon laser light source with emission at 528 nm. Baseline monitoring was followed by addition of lacritin or deletion fragments in phenol red-free Hanks basic salt solution.

[1] = tested on: human corneal epithelial (HCE) cells; assay: 3H-thymidine uptake mitogenesis assay; assay type: cell-based
Method: For phosphotyrosine blotting and mitogenesis assays, cells in serum-containing media were seeded overnight in 24-well plates at a density of 0.5×10^5 cells/mm^2 corresponding to 20-30% confluency after cell attachment, incubated in serum-free media without supplements for 24 h (phosphotyrosine) or washed with serum-free media without supplements three times (mitogenesis) and incubated with lacritin (1-1000 nM), or positive controls EGF (1.6 nM) and 10% fetal bovine serum, or negative controls bovine serum albumin or no additive in serum-free media without supplements for the indicated times (phosphotyrosine) or 30 h (mitogenesis). […] After washing, bound antibodies were detected with peroxidase-labeled secondary antibody and ECL. […] Incorporation was stopped with ice-cold phosphate buffered saline and followed by addition of cold and then room temperature trichloracetic acid (10%) for 10 min each, washing of cells with phosphate buffered saline, solubilization with 1 N sodium hydroxide, neutralization with 1 N hydrochloric acid, addition of scintillation fluid and then quantitation in a scintillation counter. […] Seventy-two hours post-transfection, mitogenesis was assessed by co-addition of 10 […] lacritin and [^3H]-thymidine (2 mCi/ml) (Amersham, Piscataway N.J.) for 24 hrs. […]

[2] = tested on: 48 kDa band in rat lacrimal cells; assay: Tyrosine phosphorylation of 48 kDa band, rat lacrimal cells; assay type: cell-based
Method: Freshly isolated rat lacrimal acinar cells, and HSG (human salivary gland) ductal and HCE (human corneal epithelial) cell lines were used to study lacritin function. For secretion studies, rat acinar cells were plated serum-free overnight on wells co-coated with 0.05 μM laminin 1 (to ensure adhesion) and 0 to 20 μM lacritin, or alternatively with laminin-1 (0.05 μM) and treated the next day with serum-free medium containing 0 to 162 ng/ml of soluble lacritin for four hours. Unstimulated and stimulated (carbachol 10^−4 M/VIP 10^−8 M) secretions were then collected, assessed (peroxidase assay) and normalized to μg cellular DNA. To study tyrosine phosphorylation, overnight serum-free cultures of both rat lacrimal acinar and HSG cells were washed and treated with 10 ng/ml of soluble lacritin for 0.5, 2.5, 10, and 30 minutes. Py(20) anti-phosphotyrosine antibody immunoprecipitation of cell lysates was then examined in Western blots of 7% SDS PAGE gels using Py(20) and ECL for detection. […] Using an inverted Zeiss 510 LSM for visualization, 50 second baseline images were first recorded. While the laser was running, lacritin was added (final concentration 4 and 40 ng/ml) and the response continually monitored every 786 msec for a minimum of 200 sec.

MUC16 = MUC16 blot of human corneal epithelial cells; assay type: cell-based; details: 10 nM
Text: MUC16 is an important mucin on the ocular surface. Mucin contributes to the tear film, is important for wetting the ocular surface, and is reduced in Sjogren's syndrome patients. […] Cells were blotted for MUC16.

Row | Molecule | effect on Ca++ signaling after lacritin stimulation (HSG cells; Example 4) | effect on carbachol-stimulated calcium mobilization (HSG cells; U73122 1 μM, Go 6976 1 μM, even at 10 μM) | effect on lacritin-stimulated calcium mobilization (HSG cells; preincubation: pertussis toxin 100 ng/ml, U73122 1 μM, Go 6976 1 μM, or siRNA) | calcium mobilization (HSG cells; 10 nM) | calcium mobilization in EGTA-containing medium (HSG cells; 10 nM lacritin) | time to calcium mobilization after addition (HSG cells; lacritin 10 nM) [s] | mitogenesis [1] | tyrosine phosphorylation of a 48 kDa band [2] | MUC16 secretion (MUC16)
1 | Cn1c2ccccc2c2c3c(c4c5ccccc5n(CCC#N)c4c21)CNC3=O [Go 6976] | suppress Ca++ signaling | unaffected | completely inhibited | – | – | – | – | – | –
2 | lacritin: recombinant human lacritin from E. coli; mature 119 residue fragment (SEQ ID NO:10) of native lacritin SEQ ID NO:4 (protein, listed as Homo sapiens) EDASSDSTGADPAQEAGTSKPNEEISGPAEPASPPETTTTAQETSAAAVQGTAKVTSSRQELNPLKSIVEKSILLTEQALAKAGKGMHGGVPGGKQFIENGSEFAQKLLKKFSLLKPWA | – | – | – | promotes calcium mobilization | mobilized internal calcium | ≤ 30 | mitogenic; also recorded: promote cell proliferation | promoted the transient tyrosine phosphorylation | greatly enhanced
3 | N-24: deletion mutant comprising a deletion of the 24 amino terminal amino acids of lacritin (protein, homo sapiens, deletion mutant comprising a deletion of the 24 amino terminal amino acids of lacritin) DSTGADPAQEAGTSKPNEEISGPAEPASPPETTTTAQETSAAAVQGTAKVTSSRQELNPLKSIVEKSILLTEQALAKAGKGMHGGVPGGKQFIENGSEFAQKLLKKFSLLKPWA | – | – | – | – | – | – | promote cell proliferation | – | –
